{"source": "patent US20050032194", "proteins": {"B1": {"name": "Sap (S-layer associated protease), native Caulobacter crescentus metalloprotease (protein)", "chain": "MCSQCERYGLNLHGDDVAPAVSGGEGPYAFVDADSRVGTVDGKKSLTVPEAALQLLRSEPGWSNQFLVPATVTYAFRATAPASMPSDTGGFSQFNAAQILQAEKALQAWSDVANITFVRVGQGTSGEAAYSDNASILFANFSTGSEGSAGFAYYPGNPAASSRSGDVWIKSTAGYNTNPTGSNYGGMVLVHELGHAIGIAHPSEYNASADDTLTYAVNATYYQDSRQYTVMSYFSEANTGGSFGGAYASSPLLDDIAAAQLAYGANMTTRTGDTVYGFNSTAGREWFAATSSSTRLVFAVWDAGGVDTLDFSGYRVAQTIDLRAGYFSSVGGLKGNVTIAMNAVIENAIGGSAADTINGNAVDNRLTGGAGADILDGGRGVDTAVFSGAYGNYTLTAATNGAWSVLDRVGTDATDTLANIEFLAFTDRTVTLVDSRVATAISNILRLQTFSASAEPLSKSLAASMAAGASHSDAIGQVSKTALSTSGVAVLAYQFFTGKTPTAAGMDYLVNPDGVNANNLNSAYYQSFNLENRYINFAVNLGKIGEGATKFLADYGGLSLFDATRKAYATIFGLTPTDDKVRALIDGRTDYFAAYGQDGPNGQGTKAAMVGWLMAEAGKADIGVYAKSAGAFFADQATKNVYGVDLIGVYAKPEYNLI"}}, "key": {"[1]": {"molecular_target": "T1, RsaA(485/IHNVG20), full-length RsaA hybrid protein carrying the 20 amino acid IHNV-G peptide at amino acid 485", "T1 chain": "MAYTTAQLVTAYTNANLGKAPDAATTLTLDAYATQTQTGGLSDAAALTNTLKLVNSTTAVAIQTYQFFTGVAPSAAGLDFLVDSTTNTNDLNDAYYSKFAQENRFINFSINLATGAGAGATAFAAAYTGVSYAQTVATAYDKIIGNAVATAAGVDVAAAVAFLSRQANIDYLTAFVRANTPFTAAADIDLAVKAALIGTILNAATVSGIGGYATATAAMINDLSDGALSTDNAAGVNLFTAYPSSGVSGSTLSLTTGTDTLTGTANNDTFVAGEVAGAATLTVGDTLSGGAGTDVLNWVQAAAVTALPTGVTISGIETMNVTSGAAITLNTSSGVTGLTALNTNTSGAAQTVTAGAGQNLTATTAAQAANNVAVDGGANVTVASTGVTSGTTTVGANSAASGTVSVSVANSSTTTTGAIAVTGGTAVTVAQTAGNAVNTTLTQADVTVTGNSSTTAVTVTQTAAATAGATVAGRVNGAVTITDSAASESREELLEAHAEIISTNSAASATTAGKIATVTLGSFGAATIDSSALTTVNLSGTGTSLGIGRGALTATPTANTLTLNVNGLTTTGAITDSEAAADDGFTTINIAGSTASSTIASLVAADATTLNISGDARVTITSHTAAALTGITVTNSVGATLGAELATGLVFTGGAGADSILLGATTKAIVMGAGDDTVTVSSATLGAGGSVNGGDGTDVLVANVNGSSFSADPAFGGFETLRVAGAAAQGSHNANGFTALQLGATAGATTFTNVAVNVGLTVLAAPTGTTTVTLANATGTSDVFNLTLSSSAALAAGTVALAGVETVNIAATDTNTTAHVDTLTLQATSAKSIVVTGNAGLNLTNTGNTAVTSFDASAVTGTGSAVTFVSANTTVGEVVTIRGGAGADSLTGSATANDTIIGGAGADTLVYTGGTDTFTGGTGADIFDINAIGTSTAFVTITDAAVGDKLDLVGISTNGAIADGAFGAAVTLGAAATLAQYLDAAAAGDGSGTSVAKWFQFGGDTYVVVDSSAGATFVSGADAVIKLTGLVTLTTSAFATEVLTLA"}, "[2]": {"molecular_target": "RsaA(723/3XPilin12), RsaA with a 3X tandemly repeated P. aeruginosa pilin epitope inserted at amino acid 723"}, "[3]": {"molecular_target": "RsaA(723/VP2C), RsaA with a 112 amino acid segment of the VP2 surface glycoprotein of infectious pancreatic necrosis virus inserted at amino acid 723"}, "[4]": {"molecular_target": "T2, RsaA, wild-type S-layer protein monomer of C. crescentus", "T2 chain": "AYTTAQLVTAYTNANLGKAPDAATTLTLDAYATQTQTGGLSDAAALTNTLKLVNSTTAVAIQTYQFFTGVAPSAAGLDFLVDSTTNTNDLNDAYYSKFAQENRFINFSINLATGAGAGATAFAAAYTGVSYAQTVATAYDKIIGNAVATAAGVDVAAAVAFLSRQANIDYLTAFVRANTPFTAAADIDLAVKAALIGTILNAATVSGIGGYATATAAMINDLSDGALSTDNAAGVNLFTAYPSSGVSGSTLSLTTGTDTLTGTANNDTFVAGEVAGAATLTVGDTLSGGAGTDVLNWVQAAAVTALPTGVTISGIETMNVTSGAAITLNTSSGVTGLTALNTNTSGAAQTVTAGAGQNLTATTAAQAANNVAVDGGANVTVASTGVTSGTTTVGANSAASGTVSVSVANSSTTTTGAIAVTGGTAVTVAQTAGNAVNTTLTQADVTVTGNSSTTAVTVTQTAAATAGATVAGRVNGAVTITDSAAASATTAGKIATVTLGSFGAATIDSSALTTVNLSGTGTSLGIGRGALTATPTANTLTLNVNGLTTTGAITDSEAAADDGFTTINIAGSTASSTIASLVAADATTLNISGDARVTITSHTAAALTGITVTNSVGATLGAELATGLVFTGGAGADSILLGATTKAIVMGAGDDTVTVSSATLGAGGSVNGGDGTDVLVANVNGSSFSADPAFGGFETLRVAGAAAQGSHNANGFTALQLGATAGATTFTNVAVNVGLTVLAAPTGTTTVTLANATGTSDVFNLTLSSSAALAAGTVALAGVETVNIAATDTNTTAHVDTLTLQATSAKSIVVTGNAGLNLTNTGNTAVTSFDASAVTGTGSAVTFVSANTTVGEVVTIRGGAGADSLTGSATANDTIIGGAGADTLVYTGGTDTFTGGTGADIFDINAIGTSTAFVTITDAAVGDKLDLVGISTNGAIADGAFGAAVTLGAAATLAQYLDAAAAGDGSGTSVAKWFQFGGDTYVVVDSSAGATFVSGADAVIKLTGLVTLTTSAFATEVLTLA"}}, "data": [{"protein": "B1", "values": [{"measurement": "proteolytic phenotype (cleavage of the hybrid protein; SDS-PAGE of low-pH extracts, complementation of Sap- JS4015 with the sap gene)", "setting": "[1]", "value": "When pBBR1MCS:Kmsap was introduced into JS4015, the proteolytic phenotype was restored"}, {"measurement": "degradation of the hybrid protein in Sap+ JS4000 against Sap- JS4015 (SDS-PAGE of low-pH extracts)", "setting": "[2]", "value": "In all instances significant degradation of the hybrid full-length rsaA protein occurred in a wild-type host (JS4000) while none was detected in the Sap^- JS4015 strain"}, {"measurement": "degradation of the hybrid protein in Sap+ JS4000 against Sap- JS4015 (SDS-PAGE of low-pH extracts)", "setting": "[3]", "value": "In all instances significant degradation of the hybrid full-length rsaA protein occurred in a wild-type host (JS4000) while none was detected in the Sap^- JS4015 strain"}, {"measurement": "proteolytic cleavage (SDS-PAGE of low-pH extracts from Sap+ JS4000)", "setting": "[4]", "value": "Native RsaA (98 kDa) was not subjected to cleavage"}]}]}
